The record followed here is patent publication US20230203190A1.

“And” between values parts separate entries of the source, which are not always exact repeats. Identical values can stand only once.

The target of test [1] is human colorectal and pancreatic carcinoma-associated antigens (CPAA) (human). The test is described as follows: flow cytometry, CFPAC-1 pancreatic tumor cells, control antibody.
The target is the same in test [2]. The test is described as follows: flow cytometry, GEO colorectal tumor cells, control antibody. (In flow cytometry, cells or beads pass a laser one at a time.)
For test [3] the target is unchanged. Put plainly: flow cytometry, LS174T colorectal tumor cells, control antibody.
Test [4] has the same target. The test is described as follows: flow cytometry, OVCAR-3 ovarian tumor cells, control antibody.
For test [5] the target is unchanged. Put plainly: flow cytometry, MCF-7 breast tumor cells, control antibody.
For test [6] the target is unchanged. The test is described as follows: flow cytometry, AsPC-1 pancreatic tumor cells, 2 ug NPC-1C per 100,000 cells.
Test [7] shares this target. Put plainly: flow cytometry, HT-29 colorectal tumor cells, 2 ug NPC-1C per 100,000 cells.
Test [8] has the same target. The test is described as follows: flow cytometry, SW1463 colorectal tumor cells, 2 ug NPC-1C per 100,000 cells.
Test [9] shares this target. The test is described as follows: flow cytometry, SW480 colorectal tumor cells, 2 ug NPC-1C per 100,000 cells.
For test [10] the target is unchanged. Put plainly: flow cytometry, PC-3 prostate tumor cells (type reported as not bound), 2 ug NPC-1C per 100,000 cells.
For test [11] the target is unchanged. The test is described as follows: flow cytometry, HTB-35 squamous tumor cells (type reported as not bound), 2 ug NPC-1C per 100,000 cells.
Test [12] has the same target. Put plainly: flow cytometry, SW620 colorectal tumor cells, 2 ug NPC-1C per 100,000 cells.
Test [13] shares this target. Put plainly: flow cytometry, Panc-1 pancreatic tumor cells, 2 ug NPC-1C per 100,000 cells.
For test [14] the target is unchanged. Put plainly: flow cytometry, Colo-205 colorectal tumor cells, 2 ug NPC-1C per 100,000 cells.
The target is the same in test [15]. Put plainly: flow cytometry, SW1116 colorectal tumor cells, 2 ug NPC-1C per 100,000 cells.
The target is the same in test [16]. Put plainly: flow cytometry, SW756 squamous tumor cells (type reported as not bound), 2 ug NPC-1C per 100,000 cells.
The target is the same in test [17]. Put plainly: flow cytometry, LS174T colorectal tumor cells, 2 ug NPC-1C per 100,000 cells.
Test [18] has the same target. Put plainly: flow cytometry, CFPAC-1 pancreatic tumor cells, 2 ug NPC-1C per 100,000 cells.
Test [19] shares this target. Put plainly: flow cytometry, H520 squamous tumor cells (type reported as not bound), 2 ug NPC-1C per 100,000 cells.
Test [20] shares this target. Put plainly: flow cytometry, H226 squamous tumor cells (type reported as not bound), 2 ug NPC-1C per 100,000 cells.
For test [21] the target is unchanged. Put plainly: flow cytometry, DU145 prostate tumor cells (type reported as not bound), 2 ug NPC-1C per 100,000 cells.
For test [22] the target is unchanged. Put plainly: flow cytometry, OVCAR-3 ovarian tumor cells (line reported as not bound), 2.5 ug NPC-1 per 100,000 cells.
For test [23] the target is unchanged. The test is described as follows: flow cytometry, GEO colorectal tumor cells, 2.5 ug NPC-1 per 100,000 cells.
Test [24] shares this target. Put plainly: flow cytometry, MCF-7 breast tumor cells (line reported as not bound), 2.5 ug NPC-1 per 100,000 cells.
Test [25] shares this target. The test is described as follows: flow cytometry, LS174T colorectal tumor cells, 2.5 ug NPC-1 per 100,000 cells.
For test [26] the target is unchanged. Put plainly: flow cytometry, CFPAC-1 pancreatic tumor cells, 2.5 ug NPC-1 per 100,000 cells.

In the case of Isotype Control (antibody), the % Cell Staining in test [1] amounted to 0.44%; in test [2] it was 0.78%; in [3], 0.93%; in [4] it was 0.19%; in test [5] it was 0.94%.

B1: NPC-1C chimeric antibody (antibody, mouse IgG1, kappa, V domains shown)
VH: QVQLKESGPDLVAPSQSLSITCIVSGFSLSKFGVNWVRQPPGKGLEWLGVIWGDGSTSYNSGLISRLSIKENSKSQVFLKLNSLQADDTATYYCVKPGGDYWGHGTSVTVSS
VL: QVVLTQSPVIMSASPGEKVTMTCSASSSISYMYWYQQKPGTSPRWIYDTSKLASGVPARFSGGSGTSYSLTISNMEAGDAAYYCHQRDSYPWTFGGGTNLIKRA
B1: the % Cell Staining in test [6] is 0.43% and 0.35%; in [7], 1.3% and 1.09%; in test [8], 3.72% and 4.29%; in test [9], 1.41% and 1.34%; in [10], 1.34% and 1.52%; in [11] it was 4.83% and 3.85%. Further, the % Cell Staining is 0.24% and 0.85% in [12]; 0.75% and 0.41% in [13]; 2.26% and 1.44% in [14]; 1.12% and 2.37% in test [15]; 0.75% and 2.14% in test [16]; 11.6% and 11.2% in test [17]. The % Cell Staining in test [18] was 11.2% and 10.6%; in [19], 1.66% and 0.93%; in [20], 0.49% and 0.4%; in [21], 0.24% and 0.14%. The mfi (mean fluorescence intensity) in test [6] is 33 and 34; in [7], 55 and 34; in test [8] it was 410 and 399; in test [9], 44 and 64; in test [10], 17 and 28; in test [11], 97 and 123. Also, the mfi (mean fluorescence intensity) was 184 and 74 in test [12]; 69 and 31 in [13]; 154 and 67 in test [14]; 97 and 174 in test [15]; 186 and 178 in test [16]; 43 and 47 in test [17]. In addition, the mfi (mean fluorescence intensity) in test [18] is 16 and 15; in test [19] it was 129 and 173; in [20], 32.

B2: NPC-1 monoclonal antibody (antibody, mouse IgG1, kappa, V domains shown)
VH: QVQLKESGPDLVAPSQSLSITCIVSGFSLSKFGVNWVRQPPGKGLEWLGVIWGDGSTSYNSGLISRLSIKENSKSQVFLKLNSLQADDTATYYCVKPGGDYWGHGTSVTVSS
VL: QVVLTQSPVIMSASPGEKVTMTCSASSSISYMYWYQQKPGTSPRWIYDTSKLASGVPARFSGGSGTSYSLTISNMEAGDAAYYCHQRDSYPWTFGGGTNLIKRA
As to B2, the % Cell Staining was 0.19% in test [22]; 86.9% in test [23]; 0.19% in test [24]; 57% in test [25]; 54.6% in [26].
